Laboratory results as given in article PMC5446181.

Assays:
[1] = biological target: TChz, truncated recognition fragment (middle region, MoRF) of the histone chaperone Chz1 (UniProt P40019); experiment: ITC; 200 uM TBZ_(Y139W) injected into 20 uM TChz, 298 K, NANO-ITC, 1:1 isothermal binding model
[2] = biological target: TBZ_(Y139W), tryptophan variant (pseudo-WT) of the H2A.Z-H2B linked fragment; experiment: stopped-flow fluorescence; TChz 4, 6, 8, 12, 20 uM mixed with 2 uM TBZ_(Y139W), 0.01 M PBS, 25 C, excitation 290 nm, 320 nm cutoff filter; global numerical fit to a two-step induced-fit model

| Kd [1] | dH [1] | stoichiometry N [1] | k1+ (first step, association to the intermediate, induced-fit model) [2] | k1− (first step, dissociation of the intermediate, induced-fit model) [2] | k2+ as the column head prints it a second time (taken as k2−, second step reverse, induced-fit model) [2] | Molecule |
| --- | --- | --- | --- | --- | --- | --- |
| 330 nM | -8.14 kcal/mol | 0.97 | – | – | – | TBZ_(Y139W), tryptophan variant (pseudo-WT) of the H2A.Z-H2B linked fragment (domain or fragment) |
| – | – | – | 6.78e+06 M⁻¹ s⁻¹ | 53.4 s⁻¹ | 9.88 s⁻¹ | TChz, truncated recognition fragment (middle region, MoRF) of the histone chaperone Chz1 (domain or fragment) DMDDAKLDALMGNEGEEEEDDLAEIDTSNIITSGRRTRGKVIDYKKTAEELDKKEPSTGSKD |
